Source: US20140178935A1 (AVEO PHARMACEUTICALS, published 2014)

Target: T1, recombinant human HGF (R&D Systems, Catalog No. 294-HGN-025) (human, UniProt P14210 32-728)
T1 construct: Mature HGF is a disulfide-linked heterodimer of alpha and beta chain cut from one precursor; also called rhHGF (R&D Systems); rhHGF
Assay: SPR, antibody captured by anti-mouse Ig, HGF injected, 25 C
Procedure: Rabbit anti-mouse immunoglobulins (BIAcore, Catalog No. BR-1005-14) were immobilized on carboxymethylated dextran CM5 sensor chips (BIAcore, Catalog No. BR-1006-68) by amine coupling (BIAcore, Catalog No. BR-1000-50) using a standard coupling protocol according to manufacturer's instructions. The analyses were performed at 25° C. using PBS (GIBCO, Catalog No. 14040-133) containing 0.05% surfactant P20 (BIAcore, Catalog No. BR-1000-54), 2 mg/mL BSA (EMD, Catalog No. 2930), and 10 mg/mL CM-Dextran Sodium salt (Fluka, Catalog No. 86524) as running buffer.
The antibodies were captured in an individual flow cell at a flow rate of 10 μL/min. Injection time was variable for each antibody to yield approximately 20 RU of antibody captured for each cycle. […] The dissociation phase was monitored for 15 or 90 minutes, depending on concentration. The surface then was regenerated with 10 mM Glycine-HCl, pH 1.7 (BIAcore, Catalog No. BR-1003-54) injected for 3 minutes at a flow rate of 60 μL/min before another cycle was initiated.
Kinetic parameters were determined using the kinetic function of the BIAevalutation software with reference subtraction.

T1 sequence (P14210 32-728 limits assumed): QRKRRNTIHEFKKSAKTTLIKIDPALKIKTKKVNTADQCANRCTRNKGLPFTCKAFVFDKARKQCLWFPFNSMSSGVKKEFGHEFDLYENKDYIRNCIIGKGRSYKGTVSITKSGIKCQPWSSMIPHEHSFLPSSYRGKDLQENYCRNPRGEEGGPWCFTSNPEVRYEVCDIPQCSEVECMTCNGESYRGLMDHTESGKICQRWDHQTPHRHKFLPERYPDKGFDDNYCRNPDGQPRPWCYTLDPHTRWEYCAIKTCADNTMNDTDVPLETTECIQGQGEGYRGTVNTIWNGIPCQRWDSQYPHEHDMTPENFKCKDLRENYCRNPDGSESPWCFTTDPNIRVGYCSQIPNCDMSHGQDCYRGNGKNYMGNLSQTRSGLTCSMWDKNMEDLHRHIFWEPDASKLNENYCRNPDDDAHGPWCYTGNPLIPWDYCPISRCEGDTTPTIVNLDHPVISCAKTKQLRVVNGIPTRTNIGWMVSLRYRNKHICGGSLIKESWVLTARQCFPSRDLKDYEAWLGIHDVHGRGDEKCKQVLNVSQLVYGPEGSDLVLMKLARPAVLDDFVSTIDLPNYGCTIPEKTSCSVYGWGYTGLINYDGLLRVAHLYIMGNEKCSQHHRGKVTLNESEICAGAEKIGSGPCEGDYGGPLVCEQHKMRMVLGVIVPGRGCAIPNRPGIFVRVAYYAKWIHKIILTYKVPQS

Kd: 0.0135 nM | koff: 2.1e-05 s⁻¹ | kon: 1.6e+06 M⁻¹ s⁻¹
B1: anti-hHGF monoclonal antibody 2B8 (antibody, mouse IgG1, kappa)
heavy: QVQLQQPGAELVKPGTSVKLSCKASGYTFTTYWMHWVNQRPGQGLEWIGEINPTNGHTNYNEKFKSKATLTVDKSSSTAYMQLSSLTSEDSAVYYCARNYVGSIFDYWGQGTTLTVSSAKTTPPSVYPLAPGSAAQTNSMVTLGCLVKGYFPEPVTVTWNSGSLSSGVHTFPAVLQSDLYTLSSSVTVPSSTWPSETVTCNVAHPASSTKVDKKIVPRDCGCKPCICTVPEVSSVFIFPPKPKDVLTITLTPKVTCVVVDISKDDPEVQFSWFVDDVEVHTAQTQPREEQFNSTFRSVSELPIMHQDWLNGKEFKCRVNSAAFPAPIEKTISKTKGRPKAPQVYTIPPPKEQMAKDKVSLTCMITDFFPEDITVEWQWNGQPAENYKNTQPIMDTDGSYFVYSKLNVQKSNWEAGNTFTCSVLHEGLHNHHTEKSLSHSPGK
light: NIVMTQSPKSMSMSVGERVTLSCKASENVVSYVSWYQQKPAQSPKLLIYGASNRNTGVPDRFTGSGSATDFTLTISSVRAEDLADYHCGQSYNYPYTFGGGTRLEIKRADAAPTVSIFPPSSEQLTSGGASVVCFLNNFYPKDINVKWKIDGSERQNGVLNSWTDQDSKDSTYSMSSTLTLTKDEYERHNSYTCEATHKTSTSPIVKSFNRNEC
notes: Murine IgG1 kappa from hybridoma; also called murine 2B8; mouse 2B8
